Data published in patent publication US20210206880A1 (published 2021).

Tests used:
MbNb207^cHopQ [1] = molecular target: T1, MbNb207^cHopQ; assay: co-crystal structure
T1 construct: also called cHopQNbGFP207; 58 kDa Megabody

MbNb207^cHopQ [2] = molecular target: T1, MbNb207^cHopQ; assay: BLI (Octet), biotinylated MbNb207^cHopQ on streptavidin sensors

| Binder | binding result (MbNb207^cHopQ [1]) | binding result (MbNb207^cHopQ [2]) |
| --- | --- | --- |
| Nb60 HopQ-specific Nanobody (VHH, also called cHopQ-specific Nanobody) VHH: QVQLQESGGGLVQPGGSLRLSCAASGFTFSRYAMSWVRQAPGKGPEWVSAINSPGGSTSYADSVKGRFTISRDNAKNTLYLQMNSLKPDDTAVYYCAKYERATEWGHTIVAVTPLLDGVHDYWGQGTQVTVSS | binds | – |
| MbNb60^c7HopQ mut2 (N277K, T270R) (designed binder, also called MbNb60^cHopQmut2; MbNb60^c7HopQ N277K T270R) QVQLVESGGGLVQTKTTTSVIDTTNDAQNLLTQAQTIVNTLKDYCPILIAKSSSSNGGTNNANTPSWQTAGGGKNSCATFGAEFSAASDMINNAQKIVQETQQLSANQPKNITQPHNLNLNSPSSLTALAQKMLKNAQSQAEILKLANQVESDFNKLSSGHLKDYIGKCDASAISSANMTMQNQKNNWGNGCAGVEETQSLLKTSAADFNNQTPQINQAQNLANTLIQELGNNTYEQLSRLLTNDNGTNSKTSAQAINQAVNNLNERAKRLAGGTTKSPAYQATLLALRSVLGLWNSMGYAVICGGYTKSPGENNQKDFHYTDENGNGTTINCGGSTNSNGTHSYNGTNTLKADKNVSLSIEQYEKIHEAYQILSKALKQAGLAPLNSKGEKLEAHVTTSKYGSLRLSCAASGFTFSRYAMSWVRQAPGKGPEWVSAINSPGGSTSYADSVKGRFTISRDNAKNTLYLQMNSLKPDDTAVYYCAKYERATEWGHTIVAVTPLLDGVHDYWGQGTQVTVSSHHHHHHEPEA | – | binds |
| MbNb60^c7HopQ mut3 (N277K, T270R, E197R) (designed binder, also called MbNb60^cHopQmut3; MbNb60^c7HopQ N277K T270R E197R) QVQLVESGGGLVQTKTTTSVIDTTNDAQNLLTQAQTIVNTLKDYCPILIAKSSSSNGGTNNANTPSWQTAGGGKNSCATFGAEFSAASDMINNAQKIVQETQQLSANQPKNITQPHNLNLNSPSSLTALAQKMLKNAQSQAEILKLANQVESDFNKLSSGHLKDYIGKCDASAISSANMTMQNQKNNWGNGCAGVERTQSLLKTSAADFNNQTPQINQAQNLANTLIQELGNNTYEQLSRLLTNDNGTNSKTSAQAINQAVNNLNERAKRLAGGTTKSPAYQATLLALRSVLGLWNSMGYAVICGGYTKSPGENNQKDFHYTDENGNGTTINCGGSTNSNGTHSYNGTNTLKADKNVSLSIEQYEKIHEAYQILSKALKQAGLAPLNSKGEKLEAHVTTSKYGSLRLSCAASGFTFSRYAMSWVRQAPGKGPEWVSAINSPGGSTSYADSVKGRFTISRDNAKNTLYLQMNSLKPDDTAVYYCAKYERATEWGHTIVAVTPLLDGVHDYWGQGTQVTVSSHHHHHHEPEA | – | binds |
| MbNb60^cYgjkE2 (designed binder, also called Mb^Nb60cYgjkQE2) QVQLVESGGGLVYKEETQSGLNNYARVVEKGQYDSLEIPAQVAASWESGRDDAAVFGFIDKEQLDKYVANGGKRSDWTVKFAENRSQDGTLLGYSLLQESVDQASYMYSDNHYLAEMATILGKPEEAKRYRQLAQQLADYINTCMFDPTTQFYYDVRIEDKPLANGCAGKPIVERGKGPEGWSPLFNGAATQANADAVVKVMLDPKEFNTFVPLGTAALTNPAFGADIYWRGRVWVDQFWFGLKGMERYGYRDDALKLADTFFRHAKGLTADGPIQENYNPLTGAQQGAPNFSWSAAHLYMLYNDFFRKQASGGGSGGGGSGGGGSGNADNYKNVINRTGAPQYMKDYDYDDHQRFNPFFDLGAWHGHLLPDGPNTMGGFPGVALLTEEYINFMASNFDRLTVWQDGKKVDFTLEAYSIPGALVQKLTAKDVQVEMTLRFATPRTSLLETKITSNKPLDLVWDGELLEKLEAKEGKPLSDKTIAGEYPDYQRKISATRDGLKVTFGKVRATWDLLTSGESEYQVHKSLPVQTEINGNRFTSKAHINGSTTLYTTYSHLLTAQEVSKEQMQIRDILARPAFYLTASQQRWEEYLKKGLTNPDATPEQTRVAVKAIETLNGNWRSPGGAVKFNTVTPSVTGRWFSGNQTWPWDTWKQAFAMAHFNPDIAKENIRAVFSWQIQPGDSVRPQDVGFVPDLIAWNLSPERGGDGGNWNERNTKPSLAAWSVMEVYNVTQDKTWVAEMYPKLVAYHDWWLRNRDHNGNGVPEYGATRDKAHNTESGEMLFTVKKDSLRLSCAASGFTFSRYAMSWVRQAPGKGPEWVSAINSPGGSTSYADSVKGRFTISRDNAKNTLYLQMNSLKPDDTAVYYCAKYERATEWGHTIVAVTPLLDGVHDYWGQGTQVTVSSHHHHHHEPEA | – | binds |
